We go through seven molecules from patent publication US20090035322A1 (Regeneron, published 2009).

Read-outs that look alike come from different tables or passages of the source.

The target in test [1] is T1, human CD20 (human, UniProt P11836 1-297).
T1 sequence: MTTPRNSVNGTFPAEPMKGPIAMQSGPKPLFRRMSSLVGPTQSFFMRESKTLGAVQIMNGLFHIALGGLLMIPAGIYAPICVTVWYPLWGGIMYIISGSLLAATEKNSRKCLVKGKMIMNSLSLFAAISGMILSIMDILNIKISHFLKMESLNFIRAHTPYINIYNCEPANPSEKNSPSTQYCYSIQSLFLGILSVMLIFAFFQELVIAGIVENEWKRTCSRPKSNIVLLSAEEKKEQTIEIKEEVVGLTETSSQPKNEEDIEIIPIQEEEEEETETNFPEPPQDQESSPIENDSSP
As to the kind of experiment: cell-based or functional assay.

Test [2] concerns the target T1, human CD20. Briefly: cell-based or functional assay. This is another data set of the same source.
Test [3] addresses T1, human CD20. Briefly: flow cytometry, hCD20-transfected MG87 cells. As to the method:
Briefly, parental MG87 and human CD20-transfected MG87 cells were incubated for 30 min at 4° C. with each of the 15 human antibodies and the two control antibodies, followed by incubation with PE-conjugated anti-human IgG antibody. Binding was assessed by flow cytometry. Fluorescence intensities were compared with binding to the parental cell line and control isotype-matched sample.
(In flow cytometry, cells or beads pass a laser one at a time.)

Test [4] deals with T2, mutant human CD20 #4 (N166D) (human, UniProt P11836 1-297).
T2 construct: Stably expressed on MG87 cells
T2 sequence: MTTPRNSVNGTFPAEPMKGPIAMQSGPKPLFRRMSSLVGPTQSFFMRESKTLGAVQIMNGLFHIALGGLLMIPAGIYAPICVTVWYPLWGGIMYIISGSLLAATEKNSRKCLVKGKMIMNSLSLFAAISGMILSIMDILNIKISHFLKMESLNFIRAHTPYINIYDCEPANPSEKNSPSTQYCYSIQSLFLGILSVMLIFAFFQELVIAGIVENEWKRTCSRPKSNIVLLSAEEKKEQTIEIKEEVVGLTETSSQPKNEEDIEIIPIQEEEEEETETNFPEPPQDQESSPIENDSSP
As to the kind of experiment: FACS, mutant-hCD20 MG87 cells; 100%=best antibody. The procedure: (§1) Briefly, approximately 1×10⁶ cells from each stably transfected cell line expressing a mutant human CD20 were collected and incubated with each anti-human antibody, at 10 μg/ml, on ice for 1 hr, followed by incubation with APC-conjugated goat anti-human IgG (Jackson Immunolabs), at 10 μg/ml, on ice for 45 min. For each antibody, binding to each mutant human CD20 was assessed by flow cytometry.

Test [5] deals with T3, mutant human CD20 #2 (N163D) (human, UniProt P11836 1-297).
T3 construct: Stably expressed on MG87 cells
T3 sequence: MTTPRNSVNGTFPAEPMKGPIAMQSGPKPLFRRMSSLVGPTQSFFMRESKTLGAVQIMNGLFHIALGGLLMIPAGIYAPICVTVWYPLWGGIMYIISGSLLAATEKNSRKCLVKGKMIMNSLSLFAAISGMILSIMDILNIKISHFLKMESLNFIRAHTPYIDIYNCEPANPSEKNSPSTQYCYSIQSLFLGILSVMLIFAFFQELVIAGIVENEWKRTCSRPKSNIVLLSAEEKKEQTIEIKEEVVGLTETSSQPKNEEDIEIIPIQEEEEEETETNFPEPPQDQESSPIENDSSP
As to the kind of experiment: FACS, mutant-hCD20 MG87 cells; 100%=best antibody. The procedure:
as §1

Test [6] deals with T4, mutant human CD20 #7 (Y77F, N163D) (human, UniProt P11836 1-297).
T4 construct: Stably expressed on MG87 cells
T4 chain: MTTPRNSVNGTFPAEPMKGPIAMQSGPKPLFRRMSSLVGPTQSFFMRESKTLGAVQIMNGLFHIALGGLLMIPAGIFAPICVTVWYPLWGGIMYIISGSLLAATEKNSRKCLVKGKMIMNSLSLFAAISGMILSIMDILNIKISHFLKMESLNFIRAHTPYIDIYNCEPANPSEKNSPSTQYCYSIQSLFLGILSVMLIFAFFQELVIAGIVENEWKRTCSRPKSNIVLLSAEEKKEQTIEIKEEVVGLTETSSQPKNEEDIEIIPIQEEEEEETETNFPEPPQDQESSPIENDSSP
Briefly: FACS, mutant-hCD20 MG87 cells; 100%=best antibody. The procedure:
as §1

The target in test [7] is T5, mutant human CD20 #1 (Y77F) (human, UniProt P11836 1-297).
T5 construct: Human residues replaced by mouse residues; stably expressed on MG87 cells
T5 sequence: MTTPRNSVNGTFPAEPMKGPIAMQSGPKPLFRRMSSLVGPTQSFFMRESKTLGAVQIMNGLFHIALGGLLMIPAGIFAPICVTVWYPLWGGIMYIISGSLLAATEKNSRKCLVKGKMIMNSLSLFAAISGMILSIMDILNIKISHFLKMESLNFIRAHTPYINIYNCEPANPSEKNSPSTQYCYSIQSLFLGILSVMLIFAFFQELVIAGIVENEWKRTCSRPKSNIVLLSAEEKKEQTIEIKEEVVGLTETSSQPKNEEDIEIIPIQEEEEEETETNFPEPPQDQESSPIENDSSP
As to the kind of experiment: FACS, mutant-hCD20 MG87 cells; 100%=best antibody. The procedure: as §1

The target in test [8] is T1, human CD20. Briefly: cell-based or functional assay. The source holds these as a separate data set.

B1: 9C11-14 (antibody, V domains shown)
VH: QVQLVESGGDSVKPGGSLRLSCAASGFTFSDSYMTWIRQAPGKGLEWVSFISSSGSTIYYADSVKGRFTISRDNVKKSLYLQMNRLRAEDTAVYYCAREEPGNYVYYGMDVWGQGTTVTVSS
VL: EIVVTQSPATLSLSPGERATLSCRTSQTTTSYLAWYRQKPGQAPRLLIYDASNRAAGIPARFSGSGSGTDFTLTINSLEPEDFAVYYCQLRTNWITFGQGTRLEIK
notes: Fully human IgG, constant region not specified; also called 9C11-14N
On to B1, for which, in test [1], the “% Cytotoxicity (CDC, Daudi), 0 hour” value amounted to 55.8%. In addition, the “% Cytotoxicity (CDC, Daudi), 1 hour” value in test [1] turned out to be 22.3%. In addition, the “% Cytotoxicity (CDC, Daudi), 6 hour” value in test [1] was found to be 12.9%. Also, the “ADCC EC50 (pM), Daudi + PBMC” value in test [2] worked out at 10.2 pM. Further, in test [3], the “Total Mean Fluorescent Intensity” value turned out to be 2750. Further, the “Percent of Binding to Mutant Human CD20” value in test [4] was found to be 87%; in test [5], 83%; in test [6] it was 96%; in test [7], 89%.

B2: 9D4-7 (antibody, V domains shown)
VH: EVQLVESGGGLVQPGRSLRLSCAASGFTFYDYAMHWVRQAPGKGLEWVSGISWNSDTIGYADSVKGRFTISRDNAKNSLYLQMNSLRAEDTALYYCTKDGSYGHFYSGLDVWGQGTTVTVSS
VL: EIVLTQSPATLSLSPGERATLSCRASQSVSSYLAWYQQKPGQAPRLLIYVASNRATGIPARFSGSGSGTDFTLTISSLEPDDFAVYYCQQRYYWPLTFGGGTKVEIK
notes: Fully human IgG, constant region not specified; also called 9D4-7N
Regarding B2, the “% Cytotoxicity (CDC, Daudi), 0 hour” value in test [1] came out at 99.4%. Besides, in test [1], the “% Cytotoxicity (CDC, Daudi), 1 hour” value was found to be 99%. Further, in test [1], the “% Cytotoxicity (CDC, Daudi), 6 hour” value amounted to 96%. For the same molecule, the “ADCC EC50 (pM), Daudi + PBMC” value in test [2] came out at 1.53 pM. The “Total Mean Fluorescent Intensity” value in test [3] turned out to be 3160. The “Percent of Binding to Mutant Human CD20” value in test [4] came out at 5%; in test [5] it was 2%; in test [6], 2%; in test [7], 67%.

B3: 2B7-7 (antibody, V domains shown)
VH: EVQLVESGGGLVQPGRSLRLSCAASGFTFRDYTMHWVRQGPGKGLEWVSGISWNSDYIGYADSVKGRFTISRDNAKNSLYLQMNSLRVEDTALYYCAKLSGTYRDYFYGVDVWGQGTTVTVSS
VL: EIVLTQSPATLSLSPGERAALSCRASQSVSNYLAWYQQKPGQAPRLLIYDASNRATGIPARFSGSGSGTDFTLTISSLEPEDFAVYYCQQRSNWPLTFGGGTKVEIR
notes: Fully human IgG, constant region not specified; also called 2B7-7N
Take B3: the “% Cytotoxicity (CDC, Daudi), 0 hour” value in test [1] was 99.4%. Further, in test [1], the “% Cytotoxicity (CDC, Daudi), 1 hour” value turned out to be 99.4%. Moreover, the “% Cytotoxicity (CDC, Daudi), 6 hour” value in test [1] worked out at 98.3%. In test [2], the “ADCC EC50 (pM), Daudi + PBMC” value is 1.99 pM. Also, the “Total Mean Fluorescent Intensity” value in test [3] is 3480. Moreover, the “Percent of Binding to Mutant Human CD20” value was found to be 100% in test [4], 40% in test [5], 2% in test [6] and 100% in test [7].

B4: 10F2-13 (antibody, V domains shown)
VH: EEQLVESGGDLVQPGRSLRLSCAASGFTFHDYTMHWVRQAPGKGLEWVSGISWNSGSLGYADSVKGRFTISRDNAKKSLYLQMNSLRAEDTALYYCAKDPSYGSGSYHSYYGMDVWGQGTTVTVSS
VL: EIVLTQSPATLSLSPGERATLSCWASQSISRYLVWYQQKCGQAPRLLIYEASKRATGIPVRFSGSGSGTDFTLTISSLESEDFAVYYCQQRFNWPLTFGGGTKVEIK
notes: Fully human IgG, constant region not specified; also called 10F2-13N; ab 10F2-13
Turning to B4, the “% Cytotoxicity (CDC, Daudi), 0 hour” value in test [1] is 99.6%. Moreover, the “% Cytotoxicity (CDC, Daudi), 1 hour” value in test [1] was determined as 99.2%. For the same molecule, the “% Cytotoxicity (CDC, Daudi), 6 hour” value in test [1] was found to be 98.5%. In test [2], the “ADCC EC50 (pM), Daudi + PBMC” value worked out at 6.68 pM. Further, the “Total Mean Fluorescent Intensity” value in test [3] worked out at 3400. The “Percent of Binding to Mutant Human CD20” value in test [4] amounted to 60%; in test [5] it was 54%; in test [6] it was 2%; in test [7], 79%.

B5: 8G6-5 (antibody, V domains shown)
VH: EVQLAESGGDLVQSGRSLRLSCAASGITFHDYAMHWVRQPPGKGLEWVSGISWNSDYIGYADSVKGRFTISRDNAKKSLYLQMNSLRPDDTALYYCVKDFHYGSGSNYGMDVWGQGTTVTVSP
VL: EIVMTQSPATLSMSPGERATLSCRASQSVSRNLAWYQQKVGQAPRLLISGASTRATGIPARFSGSGSGTEFTLTINSLQSEDFAVYYCQQSNDWPLTFGQGTRLEIK
notes: Fully human IgG, constant region not specified; also called 8G6-5N
Turning to B5, the “% Cytotoxicity (CDC, Daudi), 0 hour” value in test [1] was found to be 99.6%. Moreover, in test [1], the “% Cytotoxicity (CDC, Daudi), 1 hour” value is 99.2%. The “% Cytotoxicity (CDC, Daudi), 6 hour” value in test [1] was 97.7%. The “ADCC EC50 (pM), Daudi + PBMC” value in test [2] is 14.8 pM. Also, the “Total Mean Fluorescent Intensity” value in test [3] was 3410. Also, the “Percent of Binding to Mutant Human CD20” value came out at 70% in test [4], 45% in test [5], 1% in test [6] and 86% in test [7].

B6: 6F6-1 (antibody, V domains shown)
VH: AVQLVESGGGLVQPGRSLRLSCAASGFTFRDYAMHWVRQGPGKGLEWVSGISWNTDYIGYADSVKGRFTISRDNAKNSLYLQMNSLRPEDTALYYCAKDARYGRDNYYGMDVWGQGTTVTVSS
VL: EIVMTQSPATLSVSPGERATLSCRASQSVSHNLAWYQQKPGQAPRLLIYGAYTRATGIPDRFSGTGSGTEFTLTISSLQSEDFAVFYCQQYNNWPLTFGGGTKVEIK
notes: Fully human IgG, constant region not specified; also called 6F6-1N
Turning to B6, the “ADCC EC50 (pM), Daudi + PBMC” value in test [2] came to 5.15 pM. Besides, in test [3], the “Total Mean Fluorescent Intensity” value was found to be 3390. Moreover, the “Percent of Binding to Mutant Human CD20” value in test [4] amounted to 85%; in test [5], 74%; in test [6] it was 2%; in test [7], 100%. Moreover, the “% Cytotoxicity (CDC, Daudi), 0 hour” value in test [8] was determined as 97.1%. Further, the “% Cytotoxicity (CDC, Daudi), 1 hour” value in test [8] was determined as 97.1%. Besides, the “% Cytotoxicity (CDC, Daudi), 6 hour” value in test [8] is 76.4%.

B7: 9E4-20 (antibody, V domains shown)
VH: EVQLVESGGGLVQPGRSLRLSCAASGFTFYDYAMHWVRQAPGKGLEWVSGISWNSDYIGYADSVKGRFTISRDNAKNSLYLQMNSLRAEDTALYYCAKDARYGRNNYYGMDVWGPGTTVTVSS
VL: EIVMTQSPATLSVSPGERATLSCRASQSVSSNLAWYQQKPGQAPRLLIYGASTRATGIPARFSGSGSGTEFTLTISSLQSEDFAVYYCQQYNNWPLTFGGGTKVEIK
notes: Fully human IgG, constant region not specified; also called 9E4-20N
Turning to B7, the “ADCC EC50 (pM), Daudi + PBMC” value in test [2] stood at 2.37 pM. Moreover, in test [3], the “Total Mean Fluorescent Intensity” value was determined as 2910. The “Percent of Binding to Mutant Human CD20” value in test [4] was 8%; in test [5] it was 0%; in test [6], 1%; in test [7], 14%. Besides, the “% Cytotoxicity (CDC, Daudi), 0 hour” value in test [8] stood at 67.4%. Also, the “% Cytotoxicity (CDC, Daudi), 1 hour” value in test [8] stood at 31.2%. In test [8], the “% Cytotoxicity (CDC, Daudi), 6 hour” value was determined as 49.9%.
